Measured values reported in patent US20220162334A1 (SHANGHAI HENLIUS BIOTECH, published 2022).

T1: human CD73 on CD73-expressing human tumor cells (MDA-MB-231, NCI-H292) (human, UniProt P21589 27-549)
T1 construct: whole, on cells; The cell line of each result is named under assay or readout; also called cell surface CD73; surface CD73
T1 sequence (looked up): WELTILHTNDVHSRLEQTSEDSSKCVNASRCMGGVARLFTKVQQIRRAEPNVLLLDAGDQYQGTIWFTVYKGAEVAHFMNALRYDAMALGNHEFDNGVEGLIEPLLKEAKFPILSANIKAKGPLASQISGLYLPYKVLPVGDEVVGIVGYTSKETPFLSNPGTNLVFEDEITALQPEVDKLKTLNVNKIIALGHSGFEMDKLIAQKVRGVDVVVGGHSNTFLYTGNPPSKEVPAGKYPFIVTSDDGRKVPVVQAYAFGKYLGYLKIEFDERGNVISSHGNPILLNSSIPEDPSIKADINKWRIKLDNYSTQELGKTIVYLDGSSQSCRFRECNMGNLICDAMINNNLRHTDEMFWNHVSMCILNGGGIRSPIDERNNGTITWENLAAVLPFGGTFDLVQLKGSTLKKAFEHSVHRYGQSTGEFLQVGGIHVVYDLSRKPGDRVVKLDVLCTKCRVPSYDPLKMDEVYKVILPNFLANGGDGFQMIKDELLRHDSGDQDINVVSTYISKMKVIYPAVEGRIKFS


Molecular target: T1, human CD73 on CD73-expressing human …
Experiment: flow cytometry on MDA-MB-231 and NCI-H292 cells (FIGS. 11A, 11B)
Experimental: Whole cell binding ability of anti-CD73 antibodies were tested by incubating the MDA-MB-231 or NCI-H292 cells with the serial-diluted antibodies in FACS buffer (PBS with 2% FBS) at 4° C. for 30 minutes. Cells were washed with FACS buffer and the binding was detected with FITC-labeled goat anti-human IgG (H+L) antibodies (or PE-labeled goat anti-human IgG Fcγ) at 4° C. for another 30 minutes. The binding of antibodies to cell surface was measured by the mean fluorescent intensity (MFI) of staining. Flow cytometric analyses were performed using the Cytomics FC500 or CytoFLEX flow cytometry (Beckman Coulter Inc.). FIGS. 2B and 2C show selected anti-CD73 antibodies binding to CD73-expressing human tumor cells MDA-MB-231 (human breast adenocarcinoma) cells (FIG. 2B), and NCI-H292 (human mucoepidermoid pulmonary carcinoma) cells (FIG. 2C).
FIGS. 11A-11B also show CD73 binding of N1 and N4 variants. Selected variants were tested the binding to CD73-expressing MDA-MB-231 (FIG. 11A) and NCI-H292 (FIG. 11B) cells by flow cytometry. HLX01 (anti-CD20) was used as the negative control. […] N4 variants have better CD73 binding ability than N1 variants in these two cell lines. The rank of the whole cell binding ability is: N4#5, N4#6-4, N4#6-5>N4#6-2>N4#4-3, N4#6, N4#6-3, N1#9>N1#2.

| binding result | Binder |
| --- | --- |
| binds | N1#9 (antibody, human IgG2, V domains shown, also called N1 variant N1#9) VH: EVQLVESGGGLVQPGRSLRLSCAASGFTFDDYAMHWVRLAPGKGLEWVSGISWNSGSIGYADSVRGRFTISRDNAKNSLYLQMNSLRAEDTALYYCAKDMGWSLLKTNYYGMDVWGQGTTVTVSS VL: not shown |
| binds | N1#2 (antibody, human IgG2, V domains shown, also called N1 variant N1#2) VH: EVQLVESGGGLVQPGRSLRLSCAASGLTFDDYAMHWVRQAPGKGLEWVSGISWNSNSIGYADPVRGRFTISRDNAKNSLYLQMNSLRAEDTALYYCAKDMGWELLKTSYYGMDVWGQGTTVTVSS VL: not shown |
| binds | N4#6 (antibody, human IgG2, V domains shown, also called N4 variant N4#6) VH: QVQLVQSGAEVKKSGSSVKVSCKASGGTFSSYAISWVRQAPGQGLEWMGGIIPIFGTTNYAQKFQGRVTITADESTSIAYMELSSLRSEDTAVYYCASDGAVAAYDAFLIWGQGTMVTVSS VL: QAVLTQPSSVSGAPGQRVTISCTGTSSNIGAGYDIHWYQQLPGTAPKLLMYRFTRRPSGVPDRFSGSKSGTSASLTITGLQVEDEADYYCQSYDSGQRGWVFGGGTKLTVL |
| binds | N4#6-2 (antibody, human IgG2, V domains shown, also called N4 variant N4#6-2) VH: QVQLVQSGAEVKKSGSSVKVSCKASGGTFSSYAISWVRQAPGQGLEWMGRIIPIFGTTNYAQKFQGRVTITADESTSIAYMELSSLRSEDTAVYYCASDGAVAAYDAFLIWGQGTMVTVSS VL: QAVLTQPSSVSGAPGQRVTISCTGTSSNIGHGYDIHWYQHLPGTAPKLLMYRFVRRPSGVPDRFSGSKSGTSASLTITGLQVEDEADYYCQSYDSGQRGWVFGGGTKLTVL |
| binds | N4#6-5 (antibody, human IgG2, V domains shown, also called N4 variant N4#6-5) VH: QVQLVQSGAEVKKSGSSVKVSCKASGGTFSSYAISWVRQAPGQGLEWMGRIIPIFGTTNYAQKFQGRVTITADESTSIAYMELSSLRSEDTAMYYCASDGAVAAYDAFLIWGQGTMVTVSS VL: QAVLTQPSSVSGAPGQRVTISCTGTSSNIGTGYDIHWYQQLPGTAPKLLMYRFTRRPSGVPDRFSGSKSGTSASLTITGLQVEDEADYYCQSYDSGQRGWVFGGGTKLTVL |
| binds | N4#5 (antibody, human IgG2, V domains shown, also called N4 variant N4#5) VH: QVQLVQSGAEVKKSGSSVKVSCKASGGTFSSYAIAWVRQAPGQGLEWMGGIIPIFGTVNYAQKFQGRVTITADESTSIAYMELSSLRSEDTAVYYCASDGAVAAYDAFSIWGQGTMVTVSS VL: QAVLTQPSSVSGAPGQRVTISCTGTSSNIGAGYDIHWYQQLPGTAPKLLMYRFTRRPSGVPDRFSGSKSGTSASLTITGLQVEDEADYYCQSYDSGLRGLVFGGGTKLTVL |
| binds | N4#6-4 (antibody, human IgG2, V domains shown, also called N4 variant N4#6-4) VH: QVQLVQSGAEVKKSGSSVKVSCKASGGTFSSYAISWVRQAPGQGLEWMGMIIPIFGTANYAQKFQGRVTITADESTSIAYMELSSLRSEDTAVYYCASDGAVAAYDAFLIWGQGTMVTVSS VL: QAVLTQPSSVSGAPGQRVTISCTGTSSNIGAGFDIHWYQQLPGTAPKLLMYRFSRRPSGVPDRFSGSKSGTSASLTITGLQVEDEADYYCQSYDSGQRGWVFGGGTKLTVL |
| binds | N4#4-3 (antibody, human IgG2, V domains shown, also called N4 variant N4#4-3) VH: QVQLVQSGAEVKKSGSSVKVSCKASGGTFASYAISWVRQAPGQGLEWMGGIIPIFGTVNYAQKFQGRVTITADESTSIAYMELSSLRSEDTAVYYCASDGAVAAYDAFDIWGQGTMVTVSS VL: QAVLTQPSSVSGAPGQRVTISCTGTSSNIGQGYDIHWYQQLPGTAPKLLMYRFTRRPSGVPDRFSGSKSGTSASLTITGLQVEDEADYYCQSYDSGLRGWAFGGGTKLTVL |
| binds | N4#6-3 (antibody, human IgG2, V domains shown, also called N4 variant N4#6-3) VH: QVQLVQSGAEVKKSGSSVKVSCKASGGTFSSYAISWVRQAPGQGLEWMGGIIPIFGTANYAQKFQGRVTITADESTSIAYMELSSLRSEDTAVYYCASDGAVAAYDAFLIWGQGTMVTVSS VL: QAVLTQPSSVSGAPGQRVTISCTGTSSNIGLGYDIHWYQHLPGTAPKLLMYRFDRRPSGVPDRFSGSKSGTSASLTITGLQVEDEADYYCQSYDSGQRGWVFGGGTKLTVL |

Molecular target: T1, human CD73 on CD73-expressing human …
Experiment: flow cytometry on MDA-MB-231 cells, biotin-labeled antibody, streptavidin-FITC (FIG. 5A)
Experimental: The binding of anti-CD73 antibodies to cell surface CD73 were tested by incubating the MDA-MB-231 cells with the serially diluted biotin-labeled anti-CD73 antibodies in FACS buffer (PBS with 2% FBS) at 4° C. for 30 minutes. The cells were washed with FACS buffer and the binding was detected with streptavidin-FITC at 4° C. for 30 minutes. Flow cytometric analyses were performed using the Cytomics FC500 (Beckman Coulter Inc.).
The variable sequences of N1, N2 and N4 were cloned into human wild-type or C219S mutant IgG2 Fc backbone. Different IgG isotypes of N1 (FIG. 5A), N2 (FIG. 5B), N4 (FIG. 5C) were tested the binding to CD73-expressing human MDA-MB-231 cells by flow cytometry. Anti-CD73 ref-1 antibody and HLX01 (anti-CD20) were used as the positive and negative control respectively.

| binding result | Binder |
| --- | --- |
| binds | N1-wtIgG2 (antibody, Heavy chain assembled from VH and the named constant region entry; also called N1 clone, wtIgG2 isotype) heavy: EVQLVESGGGLVQPGRSLRLSCAASGFTFDDYAMHWVRQAPGKGLEWVSGISWNSGSIGYADSVRGRFTISRDNAKNSLYLQMNSLRAEDTALYYCAKDMGWELLKTYYYGMDVWGQGTTVTVSSASTKGPSVFPLAPCSRSTSESTAALGCLVKDYFPEPVTVSWNSGALTSGVHTFPAVLQSSGLYSLSSVVTVPSSNFGTQTYTCNVDHKPSNTKVDKTVERKCCVECPPCPAPPVAGPSVFLFPPKPKDTLMISRTPEVTCVVVDVSHEDPEVQFNWYVDGVEVHNAKTKPREEQFNSTFRVVSVLTVVHQDWLNGKEYKCKVSNKGLPAPIEKTISKTKGQPREPQVYTLPPSREEMTKNQVSLTCLVKGFYPSDIAVEWESNGQPENNYKTTPPMLDSDGSFFLYSKLTVDKSRWQQGNVFSCSVMHEALHNHYTQKSLSLSPGK light: not shown |
| binds | N1-mtIgG2 (antibody, Heavy chain assembled from VH and the named constant region entry; also called N1 clone, mtIgG2 isotype; C219S mutant IgG2) heavy: EVQLVESGGGLVQPGRSLRLSCAASGFTFDDYAMHWVRQAPGKGLEWVSGISWNSGSIGYADSVRGRFTISRDNAKNSLYLQMNSLRAEDTALYYCAKDMGWELLKTYYYGMDVWGQGTTVTVSSASTKGPSVFPLAPCSRSTSESTAALGCLVKDYFPEPVTVSWNSGALTSGVHTFPAVLQSSGLYSLSSVVTVPSSNFGTQTYTCNVDHKPSNTKVDKTVERKSCVECPPCPAPPVAGPSVFLFPPKPKDTLMISRTPEVTCVVVDVSHEDPEVQFNWYVDGVEVHNAKTKPREEQFNSTFRVVSVLTVVHQDWLNGKEYKCKVSNKGLPAPIEKTISKTKGQPREPQVYTLPPSREEMTKNQVSLTCLVKGFYPSDIAVEWESNGQPENNYKTTPPMLDSDGSFFLYSKLTVDKSRWQQGNVFSCSVMHEALHNHYTQKSLSLSPGK light: not shown |
| binds | N1-tmtIgG1 (antibody, Heavy chain assembled from the VH entry and the constant region entry named tmtIgG1; also called lead N1; N1 clone, tmtIgG1 isotype) heavy: EVQLVESGGGLVQPGRSLRLSCAASGFTFDDYAMHWVRQAPGKGLEWVSGISWNSGSIGYADSVRGRFTISRDNAKNSLYLQMNSLRAEDTALYYCAKDMGWELLKTYYYGMDVWGQGTTVTVSSASTKGPSVFPLAPSSSTSGGTAALGCLVKDYFPEPVTVSWNSGALTSGVHTFPAVLQSSGLYSLSSVVTVPSSSLGTQTYICNVNHKPSNTKVDKRVEPKSCDKTHTCPPCPAPEFEGGPSVFLFPPKPKDTLMISRTPEVTCVVVDVSHEDPEVKFNWYVDGVEVHNAKTKPREEQYNSTYRVVSVLTVLHQDWLNGKEYKCKVSNKALPASIEKTISKAKGQPREPQVYTLPPSREEMTKNQVSLTCLVKGFYPSDIAVEWESNGQPENNYKTTPPVLDSDGSFFLYSKLTVDKSRWQQGNVFSCSVMHEALHNHYTQKSLSLSPGK light: not shown |
